System: fusion protein SFH (SAK-GSIEGR-HV2)

For blood coagulant factor FXa, the “Anticoagulant activities (clot method) after cleavage of SFH with 0.2 U of FXa for 10 min at 37° C.” value was 2560 ATU.

From US8212003
